What was measured:
Assay in all cases: cell-based or functional assay
[1] = molecular target: HLA-B*08:01 (human)
[2] = molecular target: HLA-B*07:02 (human)
[3] = molecular target: HLA-B*51:01 (human)

Binder	% Positive donors (after 12 days of stimulation), IFNγ ELISpot [1] [%]	% Positive donors (after 12 days of stimulation), IFNγ ELISpot [2] [%]	% Positive donors (after 12 days of stimulation), IFNγ ELISpot [3] [%]
LPHERHREL (modifications not checked) [UL34 180-188 …]	90.9	25	–
LPYPRGYTL (modifications not checked) [UL26 61-69 …]	68.8	–	62.5
